Data reported in PMC9351484.
Where “and” joins values, the source holds several entries; their conditions need not be identical. Equal values may be shown once. Each block holds one molecule with its values, some of them ahead of it.

Legend:
TRF1 (human) [1] = biological target: TRF1 (human) (UniProt P54274); test: mass photometry
TPP1 (human) = test: native MS
POT1 (human) = POT1 (human) (UniProt Q9NUX5); test: native MS
[2] = biological target: TRF2/His6MBP-Rap1 complex (human) (UniProt Q9NYB0); test: pull-down + other: mass photometry
Chain of TRF2/His6MBP-Rap1 complex (human) (Q9NYB0 whole entry, looked up, one chain of several): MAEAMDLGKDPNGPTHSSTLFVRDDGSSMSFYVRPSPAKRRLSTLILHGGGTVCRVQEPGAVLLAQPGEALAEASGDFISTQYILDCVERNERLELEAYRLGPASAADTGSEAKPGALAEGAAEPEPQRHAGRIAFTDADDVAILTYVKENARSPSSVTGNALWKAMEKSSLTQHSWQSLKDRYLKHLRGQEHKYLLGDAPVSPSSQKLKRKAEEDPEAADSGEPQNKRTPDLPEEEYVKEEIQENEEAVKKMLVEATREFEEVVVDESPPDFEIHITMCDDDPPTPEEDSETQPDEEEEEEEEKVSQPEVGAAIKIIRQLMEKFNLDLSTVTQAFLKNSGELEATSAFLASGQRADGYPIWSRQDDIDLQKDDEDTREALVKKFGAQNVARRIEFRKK

[3] = biological target: TRF2/Rap1 complex (human) (UniProt Q9NYB0); test: co-sedimentation + other: mass photometry
Chain of TRF2/Rap1 complex (human) (Q9NYB0 whole entry, looked up, one chain of several): as above

TRF1 (human) [4] = biological target: TRF1 (human) (UniProt P54274); test: native MS
Target sequence in this assay (P54274 whole entry): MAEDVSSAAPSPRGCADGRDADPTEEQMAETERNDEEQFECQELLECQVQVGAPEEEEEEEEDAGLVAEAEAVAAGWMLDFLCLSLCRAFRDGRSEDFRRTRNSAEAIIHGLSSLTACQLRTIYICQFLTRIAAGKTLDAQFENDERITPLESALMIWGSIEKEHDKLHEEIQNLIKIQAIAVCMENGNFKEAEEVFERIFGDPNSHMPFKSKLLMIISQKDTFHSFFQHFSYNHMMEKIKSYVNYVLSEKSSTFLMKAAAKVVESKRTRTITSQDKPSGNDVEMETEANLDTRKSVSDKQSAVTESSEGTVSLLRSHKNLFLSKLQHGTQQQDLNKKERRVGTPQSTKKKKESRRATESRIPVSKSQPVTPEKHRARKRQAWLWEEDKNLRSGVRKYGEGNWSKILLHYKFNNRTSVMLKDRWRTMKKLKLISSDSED

POT1;TPP1N [5] = biological target: T1, POT1;TPP1N (human;human, UniProt Q9NUX5;Q96AP0 1-634;1-251, |); test: size-exclusion chromatography and negative-stain EM
T1 sequence (Q9NUX5 whole entry, chain 1 of 2): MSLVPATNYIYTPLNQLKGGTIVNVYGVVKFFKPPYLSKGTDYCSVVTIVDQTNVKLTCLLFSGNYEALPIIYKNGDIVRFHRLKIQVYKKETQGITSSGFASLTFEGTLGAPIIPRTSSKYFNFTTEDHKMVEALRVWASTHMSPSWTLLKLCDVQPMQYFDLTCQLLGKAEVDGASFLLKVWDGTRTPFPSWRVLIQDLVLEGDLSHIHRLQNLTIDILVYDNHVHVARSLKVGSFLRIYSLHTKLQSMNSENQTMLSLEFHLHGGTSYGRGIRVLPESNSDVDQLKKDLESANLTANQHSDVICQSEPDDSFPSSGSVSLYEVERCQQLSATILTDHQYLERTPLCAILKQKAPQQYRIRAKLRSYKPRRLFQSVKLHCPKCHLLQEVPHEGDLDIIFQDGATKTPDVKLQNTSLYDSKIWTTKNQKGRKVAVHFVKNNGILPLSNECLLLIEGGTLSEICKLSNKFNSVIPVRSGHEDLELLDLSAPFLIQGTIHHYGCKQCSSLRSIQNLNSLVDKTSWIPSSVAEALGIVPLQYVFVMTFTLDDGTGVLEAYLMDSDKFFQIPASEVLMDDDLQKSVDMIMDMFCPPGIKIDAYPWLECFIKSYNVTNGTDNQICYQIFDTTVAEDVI
T1 sequence (Q96AP0 1-251, chain 2 of 2): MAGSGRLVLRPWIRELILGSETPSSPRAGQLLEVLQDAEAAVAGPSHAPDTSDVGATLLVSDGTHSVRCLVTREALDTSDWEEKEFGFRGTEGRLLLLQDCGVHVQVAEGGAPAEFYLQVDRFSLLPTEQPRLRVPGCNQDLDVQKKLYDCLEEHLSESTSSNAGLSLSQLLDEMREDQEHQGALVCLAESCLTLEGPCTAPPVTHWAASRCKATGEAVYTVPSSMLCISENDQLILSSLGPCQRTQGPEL

POT1;TPP1N [6] = biological target: T1, POT1;TPP1N; test: negative-stain EM
POT1;TPP1;GFP-TIN2 = POT1;TPP1;GFP-TIN2 (human;human;human, UniProt Q9NUX5;Q96AP0;Q9BSI4-2 1-634;1-458;1-352, ||); test: negative-stain EM
Chain of POT1;TPP1;GFP-TIN2 (Q9NUX5 whole entry, chain 1 of 3): as the sequence (Q9NUX5 whole entry, chain 1 of 2) above
Chain of POT1;TPP1;GFP-TIN2 (Q96AP0 whole entry, chain 2 of 3): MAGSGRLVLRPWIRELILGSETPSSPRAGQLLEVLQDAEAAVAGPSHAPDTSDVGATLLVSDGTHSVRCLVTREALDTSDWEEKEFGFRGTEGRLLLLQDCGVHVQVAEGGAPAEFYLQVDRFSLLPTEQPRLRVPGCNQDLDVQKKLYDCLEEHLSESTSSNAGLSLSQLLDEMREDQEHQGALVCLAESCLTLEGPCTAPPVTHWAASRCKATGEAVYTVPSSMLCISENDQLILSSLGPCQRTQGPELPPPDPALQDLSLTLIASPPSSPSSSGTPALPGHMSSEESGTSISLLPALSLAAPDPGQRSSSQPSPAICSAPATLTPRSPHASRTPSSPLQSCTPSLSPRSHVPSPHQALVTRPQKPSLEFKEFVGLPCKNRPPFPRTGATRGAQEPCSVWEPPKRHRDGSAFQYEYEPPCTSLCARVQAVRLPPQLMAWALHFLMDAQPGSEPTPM
Chain of POT1;TPP1;GFP-TIN2 (Q9BSI4 1-352, chain 3 of 3): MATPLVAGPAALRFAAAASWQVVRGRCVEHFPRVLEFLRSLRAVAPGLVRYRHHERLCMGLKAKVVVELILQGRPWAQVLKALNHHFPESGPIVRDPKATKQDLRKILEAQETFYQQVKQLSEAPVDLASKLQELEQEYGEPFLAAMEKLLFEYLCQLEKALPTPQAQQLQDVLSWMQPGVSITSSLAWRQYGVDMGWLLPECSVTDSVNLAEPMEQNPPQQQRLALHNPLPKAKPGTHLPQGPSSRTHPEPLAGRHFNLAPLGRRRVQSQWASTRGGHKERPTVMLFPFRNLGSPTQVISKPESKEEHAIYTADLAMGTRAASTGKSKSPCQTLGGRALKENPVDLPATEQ

Chain of TPP1 (human) (Q96AP0 whole entry): as the sequence (Q96AP0 whole entry, chain 2 of 3) above
Chain of POT1 (human) (Q9NUX5 whole entry): as the sequence (Q9NUX5 whole entry, chain 1 of 2) above

Molecule: POT1/TPP1/GFP-TIN2/TRF1 complex (from UniProt Q9NUX5;P54274)
stoichiometry N [2]: 1

Molecule: TRF1/GFP-TIN2 complex (from UniProt P54274;Q9BSI4)
stoichiometry N ((TRF1/GFP-TIN2)2 per (TRF2/Rap1)2) [3]: 1

Molecule: TRF1 (from UniProt P54274 1-439) (natural protein)
stoichiometry N (TRF1 (human) [1]): 2

B1: 5'-biotin-(GGTTAG)2 (ssDNA)
DNA: GGTTAGGGTTAG
binding result (POT1;TPP1N [5]): binds

B2: 5'-biotin-(GGTTAG)4 (ssDNA)
DNA: GGTTAGGGTTAGGGTTAGGGTTAG
binding result (POT1;TPP1N [6]): binds | binding result (POT1;TPP1;GFP-TIN2): binds

Other lines, results leading:

stoichiometry N (TIN2 per TRF1 dimer) (TRF1 (human) [1]): 2 | stoichiometry N (TIN2 per TPP1) (TPP1 (human)): 1
Molecule: GFP-TIN2 (natural protein)

stoichiometry N (TPP1 per POT1) (POT1 (human)): 1
Molecule: TPP1 (natural protein)

stoichiometry N (POT1/TPP1/TIN2 per (TRF2/Rap1)2) [3]: 1 and 2 | stoichiometry N (POT1/TPP1/GFP-TIN2 per TRF1 dimer) (TRF1 (human) [1]): 1 and 2 | stoichiometry N (POT1/TPP1/GFP-TIN2 per TRF1 dimer) (TRF1 (human) [4]): 1 and 2
Molecule: POT1/TPP1/GFP-TIN2 complex (from UniProt Q9NUX5 1-634)
